The record followed here is patent US20140120109A1 (Regeneron, published 2014).

As a reminder, the Kd is a measure of binding affinity in units of concentration.

The chains are these.
B1: H4H1704N (antibody, human IgG4 S228P, V domains shown)
VH: EVQLVESGGGLVQPGGSLRLSCAVSGFTFSSYWMSWVRQAPGKGLEWVANIKEDGSEKNYVDSVKGRFTLSSDNAKNSLYLQMNSLRAEDTAVYYCAREDYDSYYKYGMDVWGQGTAVIVSS
VL: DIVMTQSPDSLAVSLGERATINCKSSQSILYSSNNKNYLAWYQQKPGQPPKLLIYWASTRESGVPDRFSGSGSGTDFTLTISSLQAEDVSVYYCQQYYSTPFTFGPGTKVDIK
notes: human IgG4(S108P) form of H2M1704N
B2: H4H1752P (antibody, human IgG4 S228P, V domains shown)
VH: EVQLVESGGGLVQPGGSLRLSCSASGFTFSKYVMTWVRQAPGKGLEWVSAIGPTGRTTEYADSVQGRFTISRDNSMNTVFLHLNSLTAEDTAEYYCAKMFDWNYDVYFDSWGQGTLVTVSS
VL: DIQMTQSPSILSASVGDRVTITCRTSQSISNWLAWYQQKPGKAPNLLIYKASSLESGVPSRFSGSGSGTEFTLTISSLQPDDFATYYCQQYYRYWTFGQGTKVEIK
B3: H4H1750P (antibody, human IgG4 S228P, V domains shown)
VH: QVQLVESGGGVVQPGRSLRLSCVASGFTFSNYGMHWVRQAPGKGLEWVAVISYDGNNDLYSDSVKGRFTISRDNAKNALSLQMTSLRAEDTAVYYCARDSTMTPYYYHGIDVWGQGTTVTVSA
VL: DIQMTQSPSSLSASVGDRVTITCRASQDIRNDLGWYQQKPGKAPKRLIYAASSLQSGVPSRFSGSGSGTDFTLTISSLQPEDFATYYCLQHNSYPPTFGQGTKVEIK
B4: H4H1681N (antibody, human IgG4 S228P, V domains shown)
VH: EVQLLESGGGLVQPGKSLRLSCAVSGFTFSTYGMNWVRQAPGKGLEWVSSISGTGRTTYHADSVQGRFTVSRDNSKNILYLQMNSLRADDTAVYFCTKERGDYYYGVFDYWGQGTLVTVSS
VL: DIQMTQSPSTLSASVGDRVTITCRASQTISSWLAWYQQTPEKAPKLLIYAASNLQSGVPSRFSGSGSGTEFTLTISSLQPDDFATYYCQQYHRSWTFGQGTKVEIT
B5: H4H1805N (antibody, human IgG4 S228P, V domains shown)
VH: QVQLQQWGAGLLKPSETLSLTCAVYGGSFTGFYWSWIRQPPGKGLEWIGEINHRGNTNYNPSLKSRVTMSVDTSKNQFSLNMISVTAADTAMYFCASPFYDFWSGSDYWGQGTLVTVSS
VL: DIMLTQTPLTSPVTLGQPASISCKSSQSLVHSDGNTYLSWLQQRPGQPPRLLFYKISNRFSGVPDRFSGSGAGTDFTLKISRVEAEDVGVYYCMQATQFPLTFGGGTKVEIK
notes: human IgG4(S108P) form of H2M1805N
B6: H4H1817N (antibody, human IgG4 S228P, V domains shown)
VH: QVQLQQWGAGLLKPSETLSLTCAVSGGSFSDYFWTWIRQPPGKGLEWIGEISHSGRTNYNPSLKSRVTISVDTSMSQFSLKMTSVTAADSAVYYCARDYPNWVFDYWGQGTLVTVSS
VL: EIELTQSPGTLSLSPGEGATLSCRASQSVFNSYLAWYQQKPGQAPRLLIYGASRRATGIPDRFSGSGSGTDFTLTISRLEPGDFAVYFCQQYGNSPLTFGGGTKVEIK
notes: human IgG4(S108P) form of H2M1817N
B7: H4H1818N (antibody, human IgG4 S228P, V domains shown)
VH: RLQLVESGGGLVKPGGSLKLSCAASGFTISDYYMSWIRQAPGKGLEWVSYIGGSGSTIYYADSVKGRFTISRDNAKNSLYLQMNSLRAEDTAVYYCAREDADSYYYYGMDVWGQGTTVTVSS
VL: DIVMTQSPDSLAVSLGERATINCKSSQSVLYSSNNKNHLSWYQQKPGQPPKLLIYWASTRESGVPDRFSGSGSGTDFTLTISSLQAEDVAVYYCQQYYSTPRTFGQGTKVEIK
notes: human IgG4(S108P) form of H2M1818N
B8: H4H1719P (antibody, human IgG4 S228P, V domains shown)
VH: EVQLVESGGGLVQPGRSLRLSCVASGFTFQDYAMHWVRQAPGKGLEWVSGINWISDDMGYADSVMGRFTISRDNAKNSLYLQMDSLRAEDTALYYCAKDKGLRFLDYVMDVWGQGTTVTVSA
VL: DIVMTQSPLSLPVTPGEPASISCRSTQSLLHRNGHNYLHWYLHKPGQSPQLLIHLGSNRASGVPDRFSGSGSGTDFTLKISRVEAEDVGVYYCMQALQTPYTFGQGTKLEIK
B9: H4H1804N (antibody, human IgG4 S228P, V domains shown)
VH: QVQLHQWGAGLLKPSETLSLTCAVSGVSFSDYHWAWIRQSPGKGLEWIGDINHRGRTNYNPSLKSRVTISLDTSGNPFSLKLTSVTAADTAVYYCARDFPNWVFDSWGQGILVTVSS
VL: EIVLSQSPGTLSLSPGERATLSCRASQSVSSSFLAWYQQYPGQAPRLLIYGASRRATGIPDRFRGSGSGTDFTLTISRLEPEDFAVYYCQQYGSSPLTFGGGTKVENK
notes: human IgG4(S108P) form of H2M1804N

Substitutions are numbered along the chain they refer to. In names and notes the source's numbering stands.

The first assay addresses T1, full-length cynomolgus monkey TL1A expressed on HEK293 cells (cynomolgus monkey (Macaca fascicularis), UniProt O95150 1-251 (human entry)).
T1 chain: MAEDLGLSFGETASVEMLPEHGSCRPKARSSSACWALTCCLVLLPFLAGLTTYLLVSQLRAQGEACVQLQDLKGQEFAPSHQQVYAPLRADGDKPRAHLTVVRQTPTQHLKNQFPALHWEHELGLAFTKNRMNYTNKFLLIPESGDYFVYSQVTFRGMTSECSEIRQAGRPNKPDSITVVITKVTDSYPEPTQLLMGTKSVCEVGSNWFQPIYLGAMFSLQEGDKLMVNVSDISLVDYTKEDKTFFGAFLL
The experiment in a line: cell-based or functional assay.
On to B1, for which the “IC50, reporter + 10,000 TL1A cells” value is 3760 pM.

Consider B2, for which the “IC50, reporter + 10,000 TL1A cells” value worked out at 11700 pM.

In the case of B3, the “IC50, reporter + 10,000 TL1A cells” value was found to be 107000 pM.

As to B4, the “IC50, reporter + 10,000 TL1A cells” value is 3070 pM.

Turning to B5, the “IC50, reporter + 10,000 TL1A cells” value came to 1930 pM.

In the case of B6, the “IC50, reporter + 10,000 TL1A cells” value turned out to be 5040 pM.

With B7, the “IC50, reporter + 10,000 TL1A cells” value worked out at 4290 pM.

Regarding B8, the “IC50, reporter + 10,000 TL1A cells” value was 3000 pM.

On to B9, for which the “IC50, reporter + 10,000 TL1A cells” value amounted to 2230 pM.

A further assay has as its target T2, full length human TL1A expressed on HEK293 cells (human, UniProt O95150 1-251).
T2 sequence: T1 chain with C34R, L69F, D71A, L110F, V149I
Kind of assay: cell-based or functional assay.
Turning to B1, the “IC50, reporter + 10,000 TL1A cells” value was found to be 1110 pM.

Take B2: the “IC50, reporter + 10,000 TL1A cells” value was 1990 pM.

On to B3, for which the “IC50, reporter + 10,000 TL1A cells” value amounted to 12800 pM.

With B4, the “IC50, reporter + 10,000 TL1A cells” value was found to be 660 pM.

As for B5, the “IC50, reporter + 10,000 TL1A cells” value amounted to 820 pM.

As for B6, the “IC50, reporter + 10,000 TL1A cells” value is 1110 pM.

Take B7: the “IC50, reporter + 10,000 TL1A cells” value worked out at 1540 pM.

On to B8, for which the “IC50, reporter + 10,000 TL1A cells” value was found to be 820 pM.

Take B9: the “IC50, reporter + 10,000 TL1A cells” value was found to be 560 pM.

The next assay deals with T3, full-length Fhm, human TL1A(Q167R), expressed on HEK293 cells (human, UniProt O95150 1-251).
T3 sequence: T1 chain with C34R, L69F, D71A, L110F, V149I, Q167R
The experiment in a line: cell-based or functional assay.
In the case of B1, the “IC50, reporter + 10,000 TL1A cells” value was determined as 1580 pM.

Consider B2, for which the “IC50, reporter + 10,000 TL1A cells” value came to 138000 pM.

As for B3, the “IC50, reporter + 10,000 TL1A cells” value turned out to be 29500 pM.

Turning to B5, the “IC50, reporter + 10,000 TL1A cells” value amounted to 54100 pM.

On to B6, for which the “IC50, reporter + 10,000 TL1A cells” value was 620 pM.

As to B7, the “IC50, reporter + 10,000 TL1A cells” value is 1420 pM.

With B8, the “IC50, reporter + 10,000 TL1A cells” value amounted to 840 pM.

B9: the “IC50, reporter + 10,000 TL1A cells” value was 1230 pM.

The next assay concerns the target T4, human TL1A, soluble, CHO-expressed, residues 72-251 of SEQ ID NO:244 with N-terminal His6-tag (human, UniProt O95150 72-251).
T4 construct: also called hTL1A; hTL1A (CHO)
T4 sequence: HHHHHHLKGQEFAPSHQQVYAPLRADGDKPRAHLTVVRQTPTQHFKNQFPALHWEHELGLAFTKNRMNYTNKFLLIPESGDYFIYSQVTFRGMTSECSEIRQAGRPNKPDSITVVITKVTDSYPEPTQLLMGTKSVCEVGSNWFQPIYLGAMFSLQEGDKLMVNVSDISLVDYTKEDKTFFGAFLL
The experiment in a line: SPR 25C, mAb captured. In short, it runs like this: (§1)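 Biacore T100 SPR with captured mAb and soluble TL1A/Fhm analyte; ka and kd fitted to a 1:1 model assuming monomeric TL1A. KD = kd/ka; t1/2 (min) = ln2/(60·kd).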
In turn, B1 came in with a Kd of 39.2 pM and a t1/2 of 7.55 h.

As for B2, the Kd is 156 pM and the t1/2 stood at 3.28 h.

Consider B4, for which the Kd was found to be 263 pM and the t1/2 was 0.6 h.

In turn, B5 displayed a Kd of 365 pM and a t1/2 of 1.22 h.

For B6, the Kd was determined as 321 pM and the t1/2 turned out to be 1.72 h.

B7 had a Kd of 124 pM and a t1/2 of 2 h.

As for B8, binding was characterised by a dissociation constant (Kd) of 481 pM and the t1/2 was determined as 0.733 h.

Consider B9, for which the Kd came out at 291 pM and the t1/2 was found to be 0.85 h.

A further assay concerns the target T5, cynomolgus monkey TL1A, soluble, CHO-expressed, residues 72-251 of SEQ ID NO:248 with N-terminal His6-tag (cynomolgus monkey (Macaca fascicularis), UniProt O95150 72-251 (human entry)).
T5 construct: also called MfTL1A; MfTL1A (CHO)
T5 chain: T4 sequence with F45L, I84V
The experiment in a line: SPR 25C, mAb captured. Summed up: as §1
In turn, B1 yielded a Kd of 59.9 pM and a t1/2 of 4.6 h.

As for B2, the Kd came out at 213 pM and the t1/2 was 2.32 h.

For B4, the affinity, expressed as Kd, was 404 pM and the t1/2 came to 0.417 h.

As for B5, the Kd came to 342 pM and the t1/2 is 1.23 h.

As to B6, binding was put at a Kd of 356 pM and the t1/2 turned out to be 1.53 h.

In turn, B7 displayed a Kd of 119 pM and a t1/2 of 2.03 h.

In the case of B8, the equilibrium dissociation constant (Kd) was found to be 417 pM and the t1/2 stood at 0.75 h.

B9 showed a Kd of 264 pM and a t1/2 of 0.817 h.

The target in the next assay is T6, rat TL1A, soluble, CHO-expressed, residues 76-252 of SEQ ID NO:258 with N-terminal His6-tag (rat, UniProt Q8K3Y7 76-252).
T6 construct: also called rTL1A; rTL1A (CHO)
T6 sequence: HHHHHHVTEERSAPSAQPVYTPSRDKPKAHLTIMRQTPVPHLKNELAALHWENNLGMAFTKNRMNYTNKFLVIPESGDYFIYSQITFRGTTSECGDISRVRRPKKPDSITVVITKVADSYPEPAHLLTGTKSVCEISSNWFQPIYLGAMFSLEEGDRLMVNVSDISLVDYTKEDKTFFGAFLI
Kind of assay: SPR 25C, mAb captured. In short, it runs like this:
as §1
Consider B1, for which the Kd was found to be 404 pM and the t1/2 amounted to 0.417 h.

In the case of B2, the binding result is recorded as “no binding (tested: up to 100 nM)”.

For the molecule B3, the binding result is listed as “no binding (tested: up to 100 nM)”.

As for B4, the binding result is “no binding (tested: up to 100 nM)”.

On to B5, for which the binding result is on record as “no binding (tested: up to 100 nM)”.

Take B6: the Kd is 2500 pM and the t1/2 was 0.417 h.

B7 came in with a Kd of 88 pM and a t1/2 of 1.53 h.

B8 had a Kd of 364 pM and a t1/2 of 0.633 h.

Turning to B9, the Kd stood at 321 pM and the t1/2 came out at 0.717 h.
